Experimental findings from patent publication US20260144882A1 (BIO THERA SOLUTIONS, published 2026) are described below.

First the molecules themselves.
T1: human Nectin-4 extracellular antigen hNectin-4-His (human, UniProt Q96NY8 32-349)
T1 construct: C-terminal 8xHis tag included
T1 sequence: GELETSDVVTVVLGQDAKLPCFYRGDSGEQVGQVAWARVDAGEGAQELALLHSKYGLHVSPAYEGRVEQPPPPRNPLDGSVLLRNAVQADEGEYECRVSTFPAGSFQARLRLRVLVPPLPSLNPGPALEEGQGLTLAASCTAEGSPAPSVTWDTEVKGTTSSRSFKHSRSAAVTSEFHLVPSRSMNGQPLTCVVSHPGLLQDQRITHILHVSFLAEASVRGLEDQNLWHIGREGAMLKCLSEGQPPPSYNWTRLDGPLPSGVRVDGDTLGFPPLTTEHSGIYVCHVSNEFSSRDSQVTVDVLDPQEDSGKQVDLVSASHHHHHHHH

B1: 1G8-2A4 scFv (scFv, V domains shown)
VH: EVQLVESGGGLVQPGGSLRLSCAASGDTFSSNAMSWVRQAPGKGLEWVSRIYGGSWDTDYADSVKGRFTISRDNSKNTLYLQMNSLRAEDTAVYYCARQTEDRSYGYDLDYWGQGTLVTVSS
VL: DIQMTQSPSSLSASVGDRVTITCRASQGISSYLAWYQQKPGKAPKLLIYAASSLQSGVPSRFSGSGSGTDFTLTISSLQPEDFATYYCQQHYTTPPTFGQGTKVEIKR
notes: phage clone supernatant
B2: 1G8-2G3 scFv (scFv, V domains shown)
VH: EVQLVESGGGLVQPGGSLRLSCAASGFIFGGNAMSWVRQAPGKGLEWVSRISSDKGTTNYADSVKGRFTISRDNSKNTLYLQMNSLRAEDTAVYYCARQTEDRSYGYDLDYWGQGTLVTVSS
VL: DIQMTQSPSSLSASVGDRVTITCRASQGISSYLAWYQQKPGKAPKLLIYAASSLQSGVPSRFSGSGSGTDFTLTISSLQPEDFATYYCQQHYTTPPTFGQGTKVEIKR
notes: phage clone supernatant
B3: 1G8-2F11 scFv (scFv, V domains shown)
VH: EVQLVESGGGLVQPGGSLRLSCAASGYTFGSNAMSWVRQAPGKGLEWVSRISPDSSGISYADSVKGRFTISRDNSKNTLYLQMNSLRAEDTAVYYCARQTEDRSYGYDLDYWGQGTLVTVSS
VL: DIQMTQSPSSLSASVGDRVTITCRASQGISSYLAWYQQKPGKAPKLLIYAASSLQSGVPSRFSGSGSGTDFTLTISSLQPEDFATYYCQQHYTTPPTFGQGTKVEIKR
notes: phage clone supernatant
B4: 1G8-2A7 scFv (scFv, V domains shown)
VH: EVQLVESGGGLVQPGGSLRLSCAASGYSFSDYAMSWVRQAPGKGLEWVSRISAYGWGKSYADSVKGRFTISRDNSKNTLYLQMNSLRAEDTAVYYCARQTEDRSYGYDLDYWGQGTLVTVSS
VL: DIQMTQSPSSLSASVGDRVTITCRASQGISSYLAWYQQKPGKAPKLLIYAASSLQSGVPSRFSGSGSGTDFTLTISSLQPEDFATYYCQQHYTTPPTFGQGTKVEIKR
notes: phage clone supernatant
B5: 1G8-2B10 scFv (scFv, V domains shown)
VH: EVQLVESGGGLVQPGGSLRLSCAASGFSFTNNAMSWVRQAPGKGLEWVSRIDTIGGTSSYADSVKGRFTISRDNSKNTLYLQMNSLRAEDTAVYYCARQTEDRSYGYDLDYWGQGTLVTVSS
VL: DIQMTQSPSSLSASVGDRVTITCRASQGISSYLAWYQQKPGKAPKLLIYAASSLQSGVPSRFSGSGSGTDFTLTISSLQPEDFATYYCQQHYTTPPTFGQGTKVEIKR
notes: phage clone supernatant
B6: 1G8-2B5 scFv (scFv, V domains shown)
VH: EVQLVESGGGLVQPGGSLRLSCAASGYNFGNYAMSWVRQAPGKGLEWVSRIKSHDSTSHYADSVKGRFTISRDNSKNTLYLQMNSLRAEDTAVYYCARQTEDRSYGYDLDYWGQGTLVTVSS
VL: DIQMTQSPSSLSASVGDRVTITCRASQGISSYLAWYQQKPGKAPKLLIYAASSLQSGVPSRFSGSGSGTDFTLTISSLQPEDFATYYCQQHYTTPPTFGQGTKVEIKR
notes: phage clone supernatant
B7: 1G8-2D11 scFv (scFv, V domains shown)
VH: EVQLVESGGGLVQPGGSLRLSCAASGYSFSGNAMSWVRQAPGKGLEWVSRIDGWGSYTDYADSVKGRFTISRDNSKNTLYLQMNSLRAEDTAVYYCARQTEDRSYGYDLDYWGQGTLVTVSS
VL: DIQMTQSPSSLSASVGDRVTITCRASQGISSYLAWYQQKPGKAPKLLIYAASSLQSGVPSRFSGSGSGTDFTLTISSLQPEDFATYYCQQHYTTPPTFGQGTKVEIKR
notes: phage clone supernatant
B8: 1G8-2B6 scFv (scFv, V domains shown)
VH: EVQLVESGGGLVQPGGSLRLSCAASGGSFGGYAMSWVRQAPGKGLEWVSRIYAYKSENDYADSVKGRFTISRDNSKNTLYLQMNSLRAEDTAVYYCARQTEDRSYGYDLDYWGQGTLVTVSS
VL: DIQMTQSPSSLSASVGDRVTITCRASQGISSYLAWYQQKPGKAPKLLIYAASSLQSGVPSRFSGSGSGTDFTLTISSLQPEDFATYYCQQHYTTPPTFGQGTKVEIKR
notes: phage clone supernatant
B9: 1G8-2F2 scFv (scFv, V domains shown)
VH: EVQLVESGGGLVQPGGSLRLSCAASGDIFGSYAMSWVRQAPGKGLEWVSRISSHGASRDYADSVKGRFTISRDNSKNTLYLQMNSLRAEDTAVYYCARQTEDRSYGYDLDYWGQGTLVTVSS
VL: DIQMTQSPSSLSASVGDRVTITCRASQGISSYLAWYQQKPGKAPKLLIYAASSLQSGVPSRFSGSGSGTDFTLTISSLQPEDFATYYCQQHYTTPPTFGQGTKVEIKR
notes: phage clone supernatant
B10: 1G8-2D7 scFv (scFv, V domains shown)
VH: EVQLVESGGGLVQPGGSLRLSCAASGDSFTSYAMSWVRQAPGKGLEWVSRISADSASPSYADSVKGRFTISRDNSKNTLYLQMNSLRAEDTAVYYCARQTEDRSYGYDLDYWGQGTLVTVSS
VL: DIQMTQSPSSLSASVGDRVTITCRASQGISSYLAWYQQKPGKAPKLLIYAASSLQSGVPSRFSGSGSGTDFTLTISSLQPEDFATYYCQQHYTTPPTFGQGTKVEIKR
notes: phage clone supernatant
B11: 1G8-2E7 scFv (scFv, V domains shown)
VH: EVQLVESGGGLVQPGGSLRLSCAASGYTFGNYAMSWVRQAPGKGLEWVSRISPSTWNIDYADSVKGRFTISRDNSKNTLYLQMNSLRAEDTAVYYCARQTEDRSYGYDLDYWGQGTLVTVSS
VL: DIQMTQSPSSLSASVGDRVTITCRASQGISSYLAWYQQKPGKAPKLLIYAASSLQSGVPSRFSGSGSGTDFTLTISSLQPEDFATYYCQQHYTTPPTFGQGTKVEIKR
notes: phage clone supernatant
B12: 1G8-2C6 scFv (scFv, V domains shown)
VH: EVQLVESGGGLVQPGGSLRLSCAASGDNFSSYAMSWVRQAPGKGLEWVSRIYGSDSTPDYADSVKGRFTISRDNSKNTLYLQMNSLRAEDTAVYYCARQTEDRSYGYDLDYWGQGTLVTVSS
VL: DIQMTQSPSSLSASVGDRVTITCRASQGISSYLAWYQQKPGKAPKLLIYAASSLQSGVPSRFSGSGSGTDFTLTISSLQPEDFATYYCQQHYTTPPTFGQGTKVEIKR
notes: phage clone supernatant
B13: 1G8-2G4 scFv (scFv, V domains shown)
VH: EVQLVESGGGLVQPGGSLRLSCAASGFTFGGYSMSWVRQAPGKGLEWVSRISTDGAYTNYADSVKGRFTISRDNSKNTLYLQMNSLRAEDTAVYYCARQTEDRSYGYDLDYWGQGTLVTVSS
VL: DIQMTQSPSSLSASVGDRVTITCRASQGISSYLAWYQQKPGKAPKLLIYAASSLQSGVPSRFSGSGSGTDFTLTISSLQPEDFATYYCQQHYTTPPTFGQGTKVEIKR
notes: phage clone supernatant
B14: 1G8-2B3 scFv (scFv, V domains shown)
VH: EVQLVESGGGLVQPGGSLRLSCAASGYNFTTSAMSWVRQAPGKGLEWVSRIYQDSSTTDYADSVKGRFTISRDNSKNTLYLQMNSLRAEDTAVYYCARQTEDRSYGYDLDYWGQGTLVTVSS
VL: DIQMTQSPSSLSASVGDRVTITCRASQGISSYLAWYQQKPGKAPKLLIYAASSLQSGVPSRFSGSGSGTDFTLTISSLQPEDFATYYCQQHYTTPPTFGQGTKVEIKR
notes: phage clone supernatant
B15: 1G8-2A11 scFv (scFv, V domains shown)
VH: EVQLVESGGGLVQPGGSLRLSCAASGDSFYNYSMSWVRQAPGKGLEWVSRISSDGWETFYADSVKGRFTISRDNSKNTLYLQMNSLRAEDTAVYYCARQTEDRSYGYDLDYWGQGTLVTVSS
VL: DIQMTQSPSSLSASVGDRVTITCRASQGISSYLAWYQQKPGKAPKLLIYAASSLQSGVPSRFSGSGSGTDFTLTISSLQPEDFATYYCQQHYTTPPTFGQGTKVEIKR
notes: phage clone supernatant
B16: 1G8-2C7 scFv (scFv, V domains shown)
VH: EVQLVESGGGLVQPGGSLRLSCAASGYSFTNFAMSWVRQAPGKGLEWVSRISQDGGNKNYADSVKGRFTISRDNSKNTLYLQMNSLRAEDTAVYYCARQTEDRSYGYDLDYWGQGTLVTVSS
VL: DIQMTQSPSSLSASVGDRVTITCRASQGISSYLAWYQQKPGKAPKLLIYAASSLQSGVPSRFSGSGSGTDFTLTISSLQPEDFATYYCQQHYTTPPTFGQGTKVEIKR
notes: phage clone supernatant
B17: 1G8-2F9 scFv (scFv, V domains shown)
VH: EVQLVESGGGLVQPGGSLRLSCAASGYSFSNYAMSWVRQAPGKGLEWVSRISAWGSTNNYADSVKGRFTISRDNSKNTLYLQMNSLRAEDTAVYYCARQTEDRSYGYDLDYWGQGTLVTVSS
VL: DIQMTQSPSSLSASVGDRVTITCRASQGISSYLAWYQQKPGKAPKLLIYAASSLQSGVPSRFSGSGSGTDFTLTISSLQPEDFATYYCQQHYTTPPTFGQGTKVEIKR
notes: phage clone supernatant
B18: 1G8-2D6 scFv (scFv, V domains shown)
VH: EVQLVESGGGLVQPGGSLRLSCAASGFSFDGYAMSWVRQAPGKGLEWVSRISAHSWNKDYADSVKGRFTISRDNSKNTLYLQMNSLRAEDTAVYYCARQTEDRSYGYDLDYWGQGTLVTVSS
VL: DIQMTQSPSSLSASVGDRVTITCRASQGISSYLAWYQQKPGKAPKLLIYAASSLQSGVPSRFSGSGSGTDFTLTISSLQPEDFATYYCQQHYTTPPTFGQGTKVEIKR
notes: phage clone supernatant
B19: 1G8-2D9 scFv (scFv, V domains shown)
VH: EVQLVESGGGLVQPGGSLRLSCAASGDIFDGYSMSWVRQAPGKGLEWVSRIDTGGSVKNYADSVKGRFTISRDNSKNTLYLQMNSLRAEDTAVYYCARQTEDRSYGYDLDYWGQGTLVTVSS
VL: DIQMTQSPSSLSASVGDRVTITCRASQGISSYLAWYQQKPGKAPKLLIYAASSLQSGVPSRFSGSGSGTDFTLTISSLQPEDFATYYCQQHYTTPPTFGQGTKVEIKR
notes: phage clone supernatant

The target of this experiment is T1, human Nectin-4 extracellular antigen …. Kind of experiment: ELISA, phage scFv supernatant 1:50. Here is the method: The supernatants were diluted 50-fold, and the binding OD values of the diluted supernatants to hNectin-4-His were measured by ELISA. The samples were serially 3-fold diluted, and the EC₅₀ titer for the binding of the supernatants to the antigen was measured by ELISA. […] The light chain variable region sequence is set forth in SEQ ID NO: 25. The OD value is the measurement of ELISA, and the EC₅₀ value denotes the EC₅₀ value of the binding activity titer of the supernatant to the antigen.
In general terms: ELISA stands for enzyme-linked immunosorbent assay.
B1 showed an OD value of 1.54 OD.
For B2, the OD value is 1.58 OD.
B3: the OD value stood at 1.57 OD.
With B4, the OD value is 1.6 OD.
In the case of B5, the OD value came out at 1.56 OD.
B6 had an OD value of 1.58 OD.
The same measure for B7: 1.53 OD.
Molecule B8 had an OD value of 1.56 OD.
In turn, B9 had an OD value of 1.6 OD.
The molecule B10 yielded an OD value of 1.54 OD.
Molecule B11 had an OD value of 1.56 OD.
With B12, the OD value came to 1.58 OD.
As for B13, the figure is 1.58 OD.
B14 showed an OD value of 1.57 OD.
As for B15, the figure is 1.54 OD; as for B16, 1.58 OD; as for B17, 1.56 OD.
B18 showed an OD value of 1.63 OD.
Molecule B19 had an OD value of 1.54 OD.
